In test [1] the target is huCSF-1R-huFc chimera (soluble extracellular domain) (human) (UniProt P07333). In words: competition ELISA: inhibition of CSF-1 binding to immobilised huCSF-1R-huFc chimera.
Test [2] has as its target mutant CSF-1R L301S Y969F (human) (UniProt P07333). In words: cell-based or functional assay.
Test [3] addresses T1, full-length wildtype CSF-1R (wt CSF-1R) (human, UniProt P07333 20-972). Briefly: cell-based or functional assay.
The target of test [4] is CSF-1R (R&D-Systems Cat. No. 329-MR) (human) (UniProt P07333). In words: SPR cross-competition at 25 C; response of Antibody 2 on CSF-1R held by captured Antibody 1; competitor SC-02, clone 2-4A5 (Antibody 1, same antibody).
For test [5] the target is unchanged. In words: SPR cross-competition at 25 C; response of Antibody 2 on CSF-1R held by captured Antibody 1; competitor <CSF-1R>7G5.3B6 (Antibody 1).
Test [6] concerns the target CSF-1R ECD (R&D-Systems 329-MR or in-house subcloned pCMV-presS-HisAvitag-hCSF-1R-ECD) (human) (UniProt P07333). In words: SPR (BIACORE A100) at 35 C; antibody captured, CSF-1R ECD in solution; Langmuir 1:1. (In general: SPR reads the build-up and loss of mass on a sensor chip optically.)
Test [7] addresses CSF-1R ECD (R&D-Systems 329-MR or in-house subcloned pCMV-presS-HisAvitag-hCSF-1R-ECD) (human, UniProt P07333 20-517). In words: SPR (BIACORE A100) at 35 C; antibody captured by anti mouse Fc gamma, CSF-1R ECD in solution; Langmuir 1:1. The procedure:
CSF-1R ECD (R&D-Systems 329-MR or in-house subcloned pCMV-presS-HisAvitag-hCSF-1R-ECD were added in various concentrations in solution. Association was measured by an CSF-1R-injection of 1.5 minutes at 35° C.; dissociation was measured by washing the chip surface with buffer for 10 minutes at 35° C. Anti CSF-IR SC-02, clone 2-4A5 (Santa Cruz Biotechnology, US; see also Sherr, C. J., et al., Cell 41 (1985) 665-676), which inhibits the ligand-receptor interaction, was used as reference control.

Test [8] addresses T2, huCSF-1R-huFc chimera (soluble extracellular domain) (human, UniProt P07333 20-517).
T2 construct: also called huCSF-1R ECDhuFc chimera; not shown: human Fc part
In words: competition ELISA: inhibition of CSF-1 binding to immobilised huCSF-1R-huFc chimera. The procedure: At the beginning, plates were coated with […] goat F(ab′)₂ biotinylated anti Fcγ (Jackson ImmunoResearch., Cat. No. 109-006-170) for 1 hour (h).
Thereafter the wells were blocked with PBS supplemented with 0.2% TWEEN®-20 and 2% BSA (Roche Diagnostics GmbH, DE) for 0.5 h. 75 ng/ml of huCSF-1R-huFc chimera (soluble extracellular domain) was immobilized to plate for 1 h. Then dilutions of purified antibodies in PBS/0.05% Tween20/0.5% BSA were incubated for 1 h. After adding a mixture of 3 ng/ml CSF-1 (Biomol, DE, Cat. No. 60530), 50 ng/ml biotinylated anti CSF-1 clone BAF216 (R&D Systems, UK) and 1:5000 diluted streptavidin HRP (Roche Diagnostics GmbH, DE, Cat. No. 11089153001) for 1 h the plates were washed 6 times with PBST. Anti CSF-IR SC-02, clone 2-4A5 (Santa Cruz Biotechnology, ITS), which inhibits the ligand-receptor interaction, was used as positive control. Plates were developed with freshly prepared BM BLUE® POD substrate solution (BM BLUE®: 3,3′-5,5′-Tetramethylbenzidine, Roche Diagnostics GmbH, DE, Cat. No. 11484281001) for 30 minutes at RT. Absorbance was measured at 370 nm. […] Anti CSF-1R SC-02, clone 2-4A5 (Santa Cruz Biotechnology, US), which inhibits the ligand-receptor interaction, was used as reference control.

The target of test [9] is T1, full-length wildtype CSF-1R (wt CSF-1R). In words: cell-based or functional assay. The source holds these as a separate data set.
For test [10] the target is unchanged. In words: cell-based or functional assay. The source holds these as a separate data set.

Read-outs that look alike come from different tables or passages of the source.

T1 sequence (P07333 20-972 limits assumed): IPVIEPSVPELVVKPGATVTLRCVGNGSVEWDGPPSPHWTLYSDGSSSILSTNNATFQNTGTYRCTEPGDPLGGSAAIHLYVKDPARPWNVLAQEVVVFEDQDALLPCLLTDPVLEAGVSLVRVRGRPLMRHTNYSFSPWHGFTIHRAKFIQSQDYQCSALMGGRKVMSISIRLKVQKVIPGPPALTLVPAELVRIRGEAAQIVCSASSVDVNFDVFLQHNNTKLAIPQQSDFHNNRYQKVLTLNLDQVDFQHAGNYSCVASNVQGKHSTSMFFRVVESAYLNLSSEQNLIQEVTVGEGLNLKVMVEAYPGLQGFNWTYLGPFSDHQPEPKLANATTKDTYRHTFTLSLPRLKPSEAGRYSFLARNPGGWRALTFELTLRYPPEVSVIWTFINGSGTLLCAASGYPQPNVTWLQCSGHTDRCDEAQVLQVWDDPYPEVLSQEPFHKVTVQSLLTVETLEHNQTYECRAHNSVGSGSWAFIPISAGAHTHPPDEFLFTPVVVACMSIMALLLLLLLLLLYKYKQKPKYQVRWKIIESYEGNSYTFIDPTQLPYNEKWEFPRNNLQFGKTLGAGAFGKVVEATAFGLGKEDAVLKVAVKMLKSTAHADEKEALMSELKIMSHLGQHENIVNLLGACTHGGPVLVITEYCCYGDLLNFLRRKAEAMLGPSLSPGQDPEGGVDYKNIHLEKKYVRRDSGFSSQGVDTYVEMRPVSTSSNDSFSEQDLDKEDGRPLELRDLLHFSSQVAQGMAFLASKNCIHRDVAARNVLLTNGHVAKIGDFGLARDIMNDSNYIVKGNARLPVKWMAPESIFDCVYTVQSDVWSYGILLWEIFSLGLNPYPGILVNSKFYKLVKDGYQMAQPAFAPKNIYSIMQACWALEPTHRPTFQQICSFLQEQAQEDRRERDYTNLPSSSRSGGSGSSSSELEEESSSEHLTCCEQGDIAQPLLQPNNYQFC
CSF-1R ECD (R&D-Systems 329-MR or in-house subcloned pCMV-presS-HisAvitag-hCSF-1R-ECD) (human), sequence (P07333 20-517 limits assumed): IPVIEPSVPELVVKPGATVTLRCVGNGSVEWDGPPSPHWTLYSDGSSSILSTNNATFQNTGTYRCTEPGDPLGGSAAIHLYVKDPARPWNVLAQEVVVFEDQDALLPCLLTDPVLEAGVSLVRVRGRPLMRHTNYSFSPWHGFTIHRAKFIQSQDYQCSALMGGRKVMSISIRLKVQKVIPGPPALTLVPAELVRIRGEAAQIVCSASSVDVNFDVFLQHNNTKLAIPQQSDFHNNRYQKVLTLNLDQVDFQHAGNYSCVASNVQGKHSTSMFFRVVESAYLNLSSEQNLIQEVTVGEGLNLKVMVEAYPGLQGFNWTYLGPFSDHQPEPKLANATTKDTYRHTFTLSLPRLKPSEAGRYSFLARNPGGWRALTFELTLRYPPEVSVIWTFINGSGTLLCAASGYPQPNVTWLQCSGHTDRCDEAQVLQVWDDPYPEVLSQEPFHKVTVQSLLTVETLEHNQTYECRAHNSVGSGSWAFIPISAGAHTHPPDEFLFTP
CSF-1R ECD (R&D-Systems 329-MR or in-house subcloned pCMV-presS-HisAvitag-hCSF-1R-ECD), sequence (P07333 20-517 limits assumed): as above
CSF-1R (R&D-Systems Cat. No. 329-MR) (human), sequence (P07333 20-517 limits assumed): as above
mutant CSF-1R L301S Y969F (human), sequence (P07333 20-972 L301S/Y969F limits assumed): as the sequence (P07333 20-972 limits assumed) above, with L282S, Y950F counted along it
huCSF-1R-huFc chimera (soluble extracellular domain) (human), sequence (P07333 20-517, stated change not applied): as the sequence (P07333 20-517 limits assumed) above
T2 sequence (P07333 20-517, change not shown): as the sequence (P07333 20-517 limits assumed) above

Consider “Anti CSF-1R SC-02, clone 2-4A5 (Santa Cruz Biotechnology) (antibody)”, for which, in [1], the IC50 turned out to be 0.0309 µg/mL. In addition, the % survival of NIH3T3 cells expressing mutant CSF-1R L301S Y969F, 10 ug/ml antibody (…-GLO) in test [2] came to 66%. In [3], the % inhibition of CSF-1 induced growth of BeWo tumor cells, 10 ug/ml antibody concentration is 40%; the % survival of NIH3T3 cells expressing wt CSF-1R, 10 ug/ml antibody (…-GLO) was 62%; the IC50 CSF-1R Phosphorylation amounted to 0.412 µg/mL; the IC50 [nM] of inhibition of monocyte survival (…-GLO) came to 2.4 nM. The percentage (%) of expected binding response in test [4] is -2%. In test [5], the percentage (%) of expected binding response was determined as 36%. In [6], the dissociation constant Kd is 2.73 nM, the koff was 0.00139 s⁻¹, the kon was 509000 M⁻¹ s⁻¹ and the t1/2 came to 8.31 min.

B1: <CSF-1R>7G5.3B6 (antibody, V domains shown)
VH: EIQLQQSGPELVKPGASVRVSCKPSGYSFTDYNMYWVRQSHGKSLDWIGYIDPYNGGTTYNQKFRGKATLTVDKSSSTAFMHLNSLTSEDSAVYYCARGGDEYYFDYWGQGTTLTVSS
VL: DIVMSQSPSSLAVSVGEKVTMSCKSSQSLLDSRNQKNYLAWYQQKPGQSPKLLIYWASTRESGVPDRFTGSGSGTDFTLTISSVKAEDLAVYYCQQYYSYPPTFGGGTKLEIKR
notes: Mouse monoclonal antibody from hybridoma DSM ACC2921 (NMRI mice), tested as purified hybridoma antibody; also called deposited antibody DSM ACC2921
In the case of B1, in test [7], binding was put at a Kd of 0.61 nM, the koff is 0.0049 s⁻¹, the kon is 8e+06 M⁻¹ s⁻¹ and the “t1/2” value was determined as 2.37 min. Further, the IC50 in test [8] is 0.0188 µg/mL. The “IC50 CSF-1R Phosphorylation” value in [9] is less than 0.011 µg/mL. For the same molecule, the “IC50 [nM] of inhibition of monocyte survival (…-GLO)” value in test [10] was 0.4 nM.

Usually IC50 stands for the concentration needed to halve the response being measured. A higher IC50 goes with weaker potency. In general, Kd refers to the free concentration of one partner at which half of the binding sites on the other are occupied at equilibrium, for simple one-to-one binding. A low value points to tighter binding. What is called koff is the rate constant with which the complex falls apart. In general, kon refers to a measure of how fast the partners come together.
